Measurements taken from US9603896B2, “Peptide compounds and methods of production and use thereof” (priority 2012, dated 2017).
Ends that are not written are not given here.

Legend:
[1] = test system: Pseudomonas clinical isolate B64; assay: BIOSCREEN C™ growth assay, antibiotic and peptide combinations; format: cell-based, Pseudomonas aeruginosa
Procedure: Cefotaxime (Cefo) and peptide combinations included a constant amount of Cefotaxime (2.81 μg/ml) with suboptimal amounts of peptide (0, 0.34, 1.01, and 3.04 μg/ml).
The peptide and antibiotics were set up in the wells of the microtiter plate at starting ratios of MIC equivalents of antibiotic:peptide at 3:1, 1:1, and 1:3. They were serially diluted to concentrations well below suboptimal/sublethal levels of the antibiotic and peptide. The organism was added (1×10^5 CFU/well), the BIOSCREEN C™ assay (Growth Systems USA, Piscataway, N.J.) was performed, and data was collected over 24 hours.

[2] = format: physicochemical
Excerpt: In the initial stages of the work leading to the presently disclosed and claimed inventive concept(s), sequential addition of amino acids was used to make the peptides. Three candidate peptides (CAP3720-44 (SEQ ID NO:1), CAP3720-44ser26 (SEQ ID NO:2), and CAP3720-44ser42 (SEQ ID NO:5)) were synthesized. […] In one embodiment, a fragment Fmoc condensation strategy was used rather than sequential addition of amino acids. In the fragment condensation method, three small fragments were made and condensed together to form a CAP3720-44ser42 amino acid sequence (SEQ ID NO:5). The rationale behind this reasoning was that three small fragments could be synthesized in a highly purified form and linked together, thereby overcoming some of the aggregation problems. The product from this synthesis was dialyzed against 1% acetic acid and lyophilized and determined to be approximately 50% pure. Antimicrobial activity of this peptide was approximately half of what was normally obtained. In one embodiment, the dialysis procedure was changed to employ a dilute tri-fluoro acetic acid (TFA) solution (e.g., 0.1%), which obtained a product with stronger antimicrobial activity and greater purity (about 80%). In the next production, a cysteine residue was used that was protected during synthesis and then de-protected in the final stages of purification, in an attempt to improve stability.
When the arginines were linked to the peptide to form the peptide backbone (SEQ ID NOs: 18-20), there was marked increase in solubility of the peptides and very potent activity (capable of reducing bacterial load from 1×10^6 CFU/ml to […] CFU/ml, a 5 log reduction). […] Much time and experimental effort was spent in the laboratory exploring purification techniques, but yield and purity could not be increased beyond about 70%. […] Finally, after extensive additional experimentation, another solubilizing moiety was added to the peptides, and this addition increased half-life, solubility, and purity of the peptides. […]

[3] = test system: human corneal epithelial cell (HCEC); assay: HCEC chemotaxis, modified Boyden chemotaxis chamber assay; format: cell-based; details: 120-146QH at 10^−4, 10^−6, 10^−8, 10^−10 M; 120-146QR at 10^−6, 10^−8 M; HB-EGF 50 ng/ml; rCAP37 250 ng/ml; 3 hours at 37° C
Procedure: The effect of buffer control (0.1% BSA in Gey's buffer), heparin binding-epidermal growth factor (HB-EGF, 50 ng/ml), recombinant CAP37 (rCAP37, 250 ng/ml), 120-146QH (10^−12M, 10^−10 M, 10^−8 M, 10^−6M, and 10^−4M,) and 120-146QR (10^−10M, 10^−8M, 10^−6M, and 10^−4M) on HCEC chemotaxis was determined by the modified Boyden chemotaxis chamber method. HCEC chemotaxis was measured in response to HB-EGF, rCAP37, and peptides 120-146QH (SEQ ID NO:29) and 120-146QR (SEQ ID NO:28) after incubation for 3 hours at 37° C. Chemotaxis is expressed as a percent migration. The buffer control (no chemoattractant) is arbitrarily assigned the value of 100% migration. Data are expressed as means±SEM and are calculated from 6 observations for each test point. **P<0.01 by Wilcoxon signed-rank test as compared to controls.
Chemotaxis assays were performed using the modified Boyden chemotaxis chamber assay. Peptide 120-146QH was used at 10^−4 M, 10^−6 M, 10^−8 M, 10^−10 M, and 10^−12 M, and peptide 120-146QR was used at 10^−4 M, 10^−6M, 10^−8M, and 10^−10 M.

mouse cornea = assay: In vivo model of corneal wound healing (corneal epithelial abrasion)
Procedure: The in vivo model of wound healing was carried out using a disposable biopsy punch (2 mm, Miltex, York, Pa.) to demarcate the mouse cornea and a 0.5 mm burr using the AlgerBrush II (The Alger Company, Inc., Lago Vista, Tex.) to remove the corneal epithelium. The corneal abrasions were treated at 0 and 16 hours with peptide 95-122 (10^−5 M), peptide 120-146WH (10^−6 M and 10^−8M), peptide 120-146WR ((10^−6 M and 10^−8M), or vehicle control (0.9% sodium chloride, pH 5.5, Baxter, Deerfield, Ill.). Corneal abrasions were visualized using sterile fluorescein sodium ophthalmic strips USP (Fluorets®, Chauvin Laboratory, Aubenas, France) dampened with sterile PBS. Images were taken at 0, 16, and 24 hours immediately following fluorescein staining.
Mice were anesthetized using ketamine (100 mg/kg; Bionichepharma, LLC., St. Lake Forrest, Ill.) and xylazine ([…]; Rompun; Bayer Corp., Shawnee Mission, Kans.), and the right cornea was wounded as follows. A disposable biopsy punch (2 mm, Miltex, York, Pa.) was used to demarcate the mouse cornea. The corneal epithelium was carefully removed within the 2 mm demarcated area with a 0.5 mm burr using the AlgerBrush II (The Alger Company, Inc., Lago Vista, Tex.). The corneal abrasions were treated at 0 and 16 hours with HB-EGF (250 ng/ml), rCAP37 (250 ng/ml), or vehicle control (0.9% sodium chloride, pH 5.5, Baxter, Deerfield, Ill.). Corneal abrasions were visualized using sterile fluorescein sodium ophthalmic strips USP (FLUORETS®, Chauvin Laboratory, Aubenas, France) dampened with sterile PBS. Images were taken at 0, 16, 24, and 48 hours immediately following fluorescein staining using a surgical microscope equipped with a camera (Carl Zeiss OPMI VISU 140, Carl Zeiss Surgical, Inc., Oberkochen, Germany). The areas of the open wound were quantitated using ImageJ software (US National Institutes of Health), and the results were reported as the percentage of wound closure.
Whole mouse eyes were collected for histology at 0, 6, 16, 24, and 48 hours post wounding and were immediately placed in Prefer fixative (Anatech LTD., Battle Creek, Mich.) for 20 minutes before being transferred to 70% ethanol. Tissues were paraffin-embedded and cut at a thickness of 5 μm, mounted on SUPERFROSTPLUS® slides (Statlab Medical Products, Lewisville, Tex.), and subsequently deparaffinized, rehydrated, and washed in deionized water. Sections were stained with hematoxylin (Leica Microsystems, Buffalo Grove, Ill.) and rinsed twice in deionized water before being washed in Blue Buffer (Leica Microsystems). The sections were finally washed in deionized water and 95% ethanol prior to being counterstained with eosin (Leica Microsystems). Sections were dehydrated in ethanol and cleared in xylene.

HCEC monolayers = assay: In vitro scratch assay of wound closure in HCEC monolayers; format: cell-based, human
Procedure: An in vitro scratch assay was used in order to determine the ability of rCAP37 to facilitate corneal wound healing. Human corneal epithelial cells were cultured as described above until they reached a confluent monolayer. Each monolayer was scratched using a 10 μl pipette tip to create two perpendicular lines. Monolayers were treated with heparin binding-epidermal growth factor (HB-EGF, 250 ng/ml; Becton Dickinson), rCAP37 (25-2000 ng/ml), or basal KSFM (Gibco). Wound closure was monitored at 0, 18, 24, and 48 hours utilizing a camera-equipped inverted microscope (TE2000-E; Nikon, Melville, N.Y.). Time-lapse images of in vitro wound closure were obtained using a camera-equipped inverted microscope (TE2000-E; Nikon) from 0-18 hours. HCEC monolayers were treated with HB-EGF, rCAP37, and basal KSFM as described above. The width of each scratch was quantitated using ImageJ software (US National Institutes of Health, Bethesda, Md.). Results are presented as the percentage of wound closure.

CO/N=C(\C(=O)N[C@@H]1C(=O)N2C(C(=O)O)=C(COC(C)=O)CS[C@H]12)c1csc(N)n1 [Cefotaxime, reference compound]
bactericidal impact of antibiotic alone ([1]; 2.8 μg/ml): very little bactericidal impact

C[C@H]1COc2c(N3CCN(C)CC3)c(F)cc3c(=O)c(C(=O)O)cn1c23 [Levofloxacin, reference compound]
MIC of Levofloxacin in combination with peptide ([1]; in the presence of 3.04 μg/ml of the peptide BCC02-5RMP): 3.5 mg/L

NQGRHFCGGALIHARFVMTAASCFQ (listed as Homo sapiens) [CAP3720-44]
solubility [2]: relatively insoluble

NQGRHFCGGALIHARFVMTAASSFQ [CAP3720-44ser42]
solubility [2]: relatively insoluble

NQGRHFSGGALIHARFVMTAASCFQ [CAP3720-44ser26]
solubility [2]: relatively insoluble

B1: heparin binding-epidermal growth factor (protein, UniProt Q99075 63-148, looked up)
Heparin-binding EGF-like …: DLQEADLDLLRVTLSSKPQALATPNKEEHGKRKKKGKGLGKKRDPCLRKYKDFCIHGECKYVKELRAPSCICHPGYHGERCHGLSL
notes: positive control growth factor
migration of HCECs vs buffer control [3]: significant increase in migration
closure of wounds compared to the buffer control (mouse cornea; 250 ng/ml at 0 and 16 hours): significantly higher
time to complete closure of scratch wounds (HCEC monolayers; 250 ng/ml): ≤ 24 h
percentage wound closure (HCEC monolayers; 250 ng/ml, at 18 hours): ~88%

B2: CAP37: cationic antimicrobial protein of Mr 37 kDa; recombinant CAP37 produced in HEK 293 cells (protein)
chain: IVGGRKARPRQFPFLASIQNQGRHFCGGALIHARFVMTAASCFQSQNPGVSTVVLGAYDLRRRERQSRQTFSISSMSENGYDPQQNLNDLMLLQLDREANLTSSVTILPLPLQNATVEAGTRCQVAGWGSQRSGGRLSRFPRFVNVTVTPEDQCRPNNVCTGVLTRRGGICNGDGGTPLVCEGLAHGVASFSLGPCGRGPDFFTRVALFRDWIDGVLNNPGP
migration of HCECs vs buffer control [3]: significant increase in migration
reduction of wound size (wound closure) (mouse cornea; 16 hours, 250 ng/ml topical at 0 and 16 hours): 71%
re-epithelialization (H&E histology) vs vehicle-treated wounds (mouse cornea; 24 hours, 250 ng/ml): greatly accelerated
wound closure (mouse cornea; 24 hours, 250 ng/ml topical at 0 and 16 hours): 83%
structural integrity of epithelium (H&E histology) (mouse cornea; 48 hours, 250 ng/ml): regained full integrity
percentage wound closure (HCEC monolayers; 250 ng/ml, at 18 hours): ~71%
percentage wound closure (HCEC monolayers; 500 ng/ml): approximately 62%
